We go through 1 molecule from patent publication US20260241035A1, “FUNCTIONAL NUCLEIC ACID MOLECULE AND METHOD” (THE UNIVERSITY COURT OF THE UNIVERSITY OF EDINBURGH, priority 2022, published 2026).

For one series, the target named is T1, SOX2 (Homo sapiens, UniProt P48431).
T1 construct: endogenous in cells; host or cells: nuclear extract of GSC7 and GSC328 (patient-derived glioblastoma stem cell lines)
The experiment in a line: Biotinylated enhancer pull down from nuclear extract, western blot and mass spectrometry. In kind it is binding. The note with it: for SOX2 enrichment (mass spectrometry): normalised to random sequence 599. Here is the method: The oligo was PCR-amplified using biotinylated primers. The PCR product was then SPRI purified to remove biotinylated primer dimers. These dsDNA fragments were incubated with nuclear extract from GSC7 and GSC328. They were then bound to streptavidin magnetic beads, washed three times and the frozen beads were sent for mass spectrometry analysis.
All the buffers were prepared the day before, passed through a […] filter (except the dialysis buffer) and left at 4° C. overnight. DTT and protease inhibitors were added just before use. The cells were scraped on the media and collected on 50 ml falcons, which were spun at 1350 rcf 5 minutes at 4° C. The pellet was resuspended in 50 ml of ice cold PBS, an aliquot was taken for cell counting, and spun again spun at 1350 rcf 5 minutes at 4° C. The pellet was then resuspended in 5 ml per 40 million cells of ice cold buffer A (10 mM HEPES pH 7.9, 1.5 mM MgCl2, 10 mM KCl, 0.5 mM DTT, protease inhibitors (Complete, Roche, 11697498001)) and incubated on ice for 10 min. The cell suspension was transferred to a glass Dounce homogenizer and dounced 40 times on ice. The cell suspension was transferred to a falcon and centrifuged at 1350 rcf for 10 min at 4° C. The supernatant was discarded (cytosolic extract) and the pellet resuspended in 100 μl per 10 million cells in ice cold buffer B (20 mM HEPES pH 7.9, 5% glycerol, 1 M NaCl, 1.5 mM MgCl2, 0.2 mM EDTA pH 8.0, 0.5 mM DTT, protease inhibitors (Complete, Roche, 11697498001)). The suspension was rotated for 30 minutes at 4° C. and transferred into a dialysis membrane (SnakeSkin, Thermo Scientific, Cat 68100). Dialysis was carried out in 500 ml of dialysis buffer (20 mM HEPES pH 7.9, 5% glycerol, 100 mM KCl, 0.83 mM EDTA pH 8.0, 1.66 mM DTT, protease inhibitors (Complete, Roche, 11697498001)) for two hours at 4° C. with rotation. Dialysis buffer was changed (500 ml) and the dialysis was continued overnight at 4° C. […] The supernatant was collected into new 1.5 ml tubes and quantified (Pierce BCA Protein Assay Kit, Thermo Scientific, Cat 23225). […]

Another series addresses T2, SOX9 (Homo sapiens, UniProt P48436).
T2 construct: These dsDNA fragments were incubated with nuclear extract from GSC7 and GSC328; endogenous in cells; host or cells: nuclear extract of GSC7 and/or GSC328 (patient-derived glioblastoma stem cell lines)
T2 sequence (P48436 1-509): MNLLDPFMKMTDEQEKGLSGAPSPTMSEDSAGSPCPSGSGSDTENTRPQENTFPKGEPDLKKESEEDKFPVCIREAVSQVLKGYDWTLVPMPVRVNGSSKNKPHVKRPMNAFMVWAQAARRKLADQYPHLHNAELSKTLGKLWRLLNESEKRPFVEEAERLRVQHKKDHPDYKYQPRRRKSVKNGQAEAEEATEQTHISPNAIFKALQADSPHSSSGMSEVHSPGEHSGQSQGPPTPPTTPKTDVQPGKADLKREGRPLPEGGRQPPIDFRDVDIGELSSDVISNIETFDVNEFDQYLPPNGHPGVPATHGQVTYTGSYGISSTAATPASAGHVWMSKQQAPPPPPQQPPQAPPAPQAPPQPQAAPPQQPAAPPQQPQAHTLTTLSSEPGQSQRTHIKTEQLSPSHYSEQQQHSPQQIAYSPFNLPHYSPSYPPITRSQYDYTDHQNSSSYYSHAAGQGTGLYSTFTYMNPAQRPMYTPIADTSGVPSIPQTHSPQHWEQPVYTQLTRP
Kind of series: Biotinylated enhancer pull down from nuclear extract, SOX9 detection. It counts as binding. The note with it: random DNA 599 as negative control.

T1 sequence (P48431 whole entry): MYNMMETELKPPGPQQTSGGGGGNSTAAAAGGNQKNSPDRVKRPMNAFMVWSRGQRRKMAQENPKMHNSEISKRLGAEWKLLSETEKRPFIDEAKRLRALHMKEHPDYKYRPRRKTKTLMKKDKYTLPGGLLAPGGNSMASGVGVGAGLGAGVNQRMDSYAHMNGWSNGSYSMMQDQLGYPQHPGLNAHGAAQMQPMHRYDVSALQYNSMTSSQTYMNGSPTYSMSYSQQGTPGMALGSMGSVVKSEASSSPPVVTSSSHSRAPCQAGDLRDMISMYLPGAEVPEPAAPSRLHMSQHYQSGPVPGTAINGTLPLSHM
Procedure for SOX9: All the buffers were prepared the day before, passed through a 22 μm filter (except the dialysis buffer) and left at 4° C. overnight. DTT and protease inhibitors were added just before use. […] The cell suspension was transferred to a glass Dounce homogenizer and dounced 40 times on ice. […] Dialysis buffer was changed (500 ml) and the dialysis was continued overnight at 4° C. The extract was collected in an 1.5 ml tube and spun at maximum speed for 15 min at 4° C. […] 100 μg aliquots were flash frozen in liquid nitrogen and stored at −80° C.
Enhancers were amplified with 5′ biotinylated primers (Table 5) using PrimeStar Max (Takara) according to the manufacturer's instructions.
Streptavidin Magnetic Bead (NEB, S1420S) were used according to the manufacturer's instructions. […]
Next, we aimed to confirm that indeed SOX2 and SOX9 are binding to the enhancer and the SOX dimer motif. […] To filter for transcription factors a list of all transcription factors was obtained from UniProt and overlapped with the detected proteins in both cell lines.

B1: ID1101: enhancer fragment, SEQ ID NO: 4 (nucleic acid)
DNA: GTGAGTGTGACTCACATGCTGGCATCAGAGCCCCTCTTAGAGCTTAGAACACTGGGCCTCTGTCAGGCAAAGAAAAGGAGTCCCTATGAATAGCCATCTCCACAAATAGCAGTTACTGTCACTTCTTAAAAGACACAAGCATGGCTGGAGACCGGCACTG
In the case of B1, the “SOX2 enrichment (mass spectrometry)” value in the series with SOX2 (G7 nuclear extract) is listed as 4.4 fold; with SOX2 (GSC328 nuclear extract) it was 23 fold. Further, in the series with SOX2 (GSC7 and GSC328), the SOX2 pull down entry is on record as “pulled down specifically”. Further, in the series with SOX9, the SOX9 interaction result is given as “selectively interacts”.
